Measured values from article PMC10562255, “APOBEC3B regulates R-loops and promotes transcription-associated mutagenesis in cancer”.

Biological target: APOBEC3B (A3B) WT (human, UniProt Q9UH17 1-382)
Experiment: EMSA with unlabeled self-competitor; binds ssDNA and ssRNA equally strongly; Competition EMSA: 25 mM HEPES pH 7.4, 50 mM NaCl, 0.4 U/ul RNase inhibitor, room temperature, 5 min binding plus 10 min with competitor; R-loop substrate EMSA:
Details: protein: recombinant; tags: C-terminal mycHis; label: 5' IRDye800CW

Chain of APOBEC3B (A3B) WT (Q9UH17 whole entry): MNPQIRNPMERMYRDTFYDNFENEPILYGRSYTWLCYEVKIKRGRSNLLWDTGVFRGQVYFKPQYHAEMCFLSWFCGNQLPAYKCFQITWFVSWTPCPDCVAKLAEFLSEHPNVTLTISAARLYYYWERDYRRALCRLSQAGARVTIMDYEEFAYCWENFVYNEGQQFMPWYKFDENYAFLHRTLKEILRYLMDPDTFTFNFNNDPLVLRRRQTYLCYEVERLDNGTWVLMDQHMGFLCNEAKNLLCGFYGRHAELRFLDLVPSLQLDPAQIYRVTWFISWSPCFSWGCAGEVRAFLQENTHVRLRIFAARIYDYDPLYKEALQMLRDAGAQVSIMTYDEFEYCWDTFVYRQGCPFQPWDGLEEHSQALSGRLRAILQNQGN

| Binder | binding result |
| --- | --- |
| ATTAGTCATATGGAT (ssDNA) [short 15-mer ssDNA (A3B DNA EMSA)] | binds |
| AUUAGUCAUAUGGAU (ssRNA) [short 15-mer ssRNA (A3B RNA EMSA)] | binds |
